Laboratory results reported in publication PMC12345224.

What was measured:
Test in all cases: bacterial two-hybrid (β-galactosidase activity)
Settings in all cases: in vivo, E. coli BTH101; T18 and T25 fusions; parent: est. 1400; read off a plot
FleN^A139V = molecular target: FleN^A139V
FleN^L260R = molecular target: FleN^L260R
FleN^R218C = molecular target: FleN^R218C
FleN^V24L = molecular target: FleN^V24L

wild-type FleN A139V
response (Miller unites) (FleN^A139V): 870

wild-type FleN L260R
response (Miller unites) (FleN^L260R): 1000

wild-type FleN R218C
response (Miller unites) (FleN^R218C): 1200

wild-type FleN V24L
response (Miller unites) (FleN^V24L): 130
